Source: US20190330277A1 (PIRBRIGHT INSTITUTE, published 2019)

Tests used:
[1] = target: T1, RB94_sc9-10 DS-CAV1 L373R; assay: ELISA, variant from culture supernatant on Ni-NTA plate [continued]
T1 construct: also called sc-v38
Description: (§1) Initial assessment of all constructs were performed using a 96-well microplate format for high throughput expression followed by an ELISA-based antigenic evaluation as described previously 17. […] Plasmid DNA and TrueFect-Max (United BioSystems, MD) were mixed and added to the growing cells, and the 96-well plate incubated at 37° C., 5% CO2. One day post transfection, enriched medium (high glucose DMEM plus 25% ultra-low IgG fetal bovine serum, 2× nonessential amino acids, 1× glutamine) was added to each well, and the 96-well plate was returned to the incubator for continuous culture.

[2] = target: T2, RB94 DS-CAV1 N70K S104F K117T; assay: as above
T2 construct: also called sc-v41
Description: as §1

[3] = target: T3, sc9-10_DS-CAV1_bRSV(RB94)_Fd_fp1_ig1; assay: as above
T3 construct: also called sc-v44
Description: as §1

391-2-DS-Cav1-BZGJ9_gyc3 = target: T4, 391-2-DS-Cav1-BZGJ9_gyc3; assay: as above
T4 construct: also called sc-v45
Description: as §1

391-2-DS-Cav1-BZGJ9 = target: T5, 391-2-DS-Cav1-BZGJ9; assay: as above
T5 construct: also called sc-v47
Description: as §1

391-2_DS-Cav1-tzsc4 = target: T6, 391-2_DS-Cav1-tzsc4; assay: as above
T6 construct: also called sc-v51
Description: as §1

391-2-DS-Cav1-BZGJ9_gyc6 = target: T7, 391-2-DS-Cav1-BZGJ9_gyc6; assay: as above
T7 construct: also called sc-v55
Description: as §1

KXsb2 = target: T8, KXsb2; assay: as above
T8 construct: also called sc-v56
Description: as §1

391-2_DS-Cav1-tzsc6 = target: T9, 391-2_DS-Cav1-tzsc6; assay: as above
T9 construct: also called sc-v58
Description: as §1

[4] = target: T10, 391-2-DS-Cav1-BZGJ9_gyc10; assay: as above
T10 construct: also called sc-v60
Description: as §1

[5] = target: T11, RB94 hu/bov DS-Cav1 Long FdPL; assay: ELISA, variant from culture supernatant on Ni-NTA plate;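 note: antigenic evaluation by ELISA of constructs expressed at small scale in 96-well plates after transient plasmid transfection of cells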
T11 construct: also called sc-v20
Description: as §1

B1: D25 antibody (antibody, V domains shown)
VH: QVQLVQSGAEVKKPGSSVMVSCQASGGPLRNYIINWLRQAPGQGPEWMGGIIPVLGTVHYAPKFQGRVTITADESTDTAYIHLISLRSEDTAMYYCATETALVVSTTYLPHYFDNWGQGTLVTVSS
VL: DIQMTQSPSSLSAAVGDRVTITCQASQDIVNYLNWYQQKPGKAPKLLIYVASNLETGVPSRFSGSGSGTDFSLTISSLQPEDVATYYCQQYDNLPLTFGGGTKVEIK
notes: also called mAb D25
[1]
  ELISA binding value: 0.27
[2]
  ELISA binding value: 0.17
[3]
  ELISA binding value: 0.191
391-2-DS-Cav1-BZGJ9_gyc3
  ELISA binding value: 0.164
391-2-DS-Cav1-BZGJ9
  ELISA binding value: 0.183
391-2_DS-Cav1-tzsc4
  ELISA binding value: 0.138
391-2-DS-Cav1-BZGJ9_gyc6
  ELISA binding value: 0.135
KXsb2
  ELISA binding value: 0.132
391-2_DS-Cav1-tzsc6
  ELISA binding value: 0.138
[4]
  ELISA binding value: 0.136

B2: MPE8 antibody (antibody, V domains shown)
VH: EVQLVESGGGLVKPGGSLRLSCAASGFTFSSYSMNWVRQAPGKGLEWVSSISASSSYSDYADSAKGRFTISRDNAKTSLFLQMNSLRAEDTAIYFCARARATGYSSITPYFDIWGQGTLVTVSS
VL: QSVVTQTPSVSGAPGQRVTISCTGSSSNIGAGYDVHWYQQLPGTAPKLLIYDNNNRPSGVPDRFSASKSGTSASLAITGLQAEDEADYYCQSYDRNLSGVFGTGTKVTVL
notes: also called mAb MPE8
[5]
  ELISA binding value: 1.38
[1]
  ELISA binding value: 0.258
[2]
  ELISA binding value: 0.201
[3]
  ELISA binding value: 0.0965
391-2-DS-Cav1-BZGJ9_gyc3
  ELISA binding value: 0.123
391-2-DS-Cav1-BZGJ9
  ELISA binding value: 0.0926
391-2_DS-Cav1-tzsc4
  ELISA binding value: 0.096
391-2-DS-Cav1-BZGJ9_gyc6
  ELISA binding value: 0.0866
KXsb2
  ELISA binding value: 0.0752
391-2_DS-Cav1-tzsc6
  ELISA binding value: 0.0583
[4]
  ELISA binding value: 0.0498
